Patent publication US20080267961A1 (published 2008)
One block for each molecule: values may come before it.

How the values were obtained:
HRGβ177-244 [1] = target: HRGβ177-244 (UniProt Q02297); experiment: 125I-HRGβ177-244 binding to ErbB3-IgG homodimer (positive control), 96-well plate, Scatchard analysis
[2] = target: T1, HRGβ 1 EGF domain 176-246 (UniProt Q02297-6 176-246, 125I-labelled in the crosslinking experiment (residue not stated)); experiment: cell-based or functional assay
T1 sequence (looked up): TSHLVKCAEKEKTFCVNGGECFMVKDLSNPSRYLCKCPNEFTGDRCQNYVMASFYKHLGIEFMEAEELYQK

HRGα EGF domain177-241 = HRGα EGF domain177-241 (UniProt Q02297); experiment: cell-based or functional assay
ErbB2 = ErbB2 (UniProt P04626); experiment: inhibition of 125I-HRGβ177-244 (0.1 nM) binding to T47D cells; 2C4 varied
[3] = target: HRGα EGF domain177-241, Q02297; experiment: cell-based or functional assay
HRGβ177-244 [4] = target: HRGβ177-244 (UniProt Q02297); experiment: 125I-HRGβ177-244 binding to immobilized p85-sErbB3, 96-well plate, Scatchard analysis
HRGβ177-244 [5] = target: HRGβ177-244 (UniProt Q02297); experiment: inhibition of 125I-HRGβ177-244 (0.1 nM) binding to T47D cells; p85-sErbB3 varied

- Kd (HRGβ177-244 [1]): 4.7 nM
Molecule: ErbB3-IgG fusion protein (from UniProt P21860 20-643) (Fc fusion)

- decrease of ligand-stimulated ErbB3 tyrosine phosphorylation in Ba/F3 (ErbB2+ErbB3) cells, 50 and 100 ng/ml HRGβ, conditioned medium [2]: 60%
- inhibition of HRGα-stimulated ErbB3 activation (tyrosine phosphorylation, densitometry) in Ba/F3 (ErbB2+ErbB3) cells, 1 µg/ml HRGα, conditioned medium (HRGα EGF domain177-241): 40%
Molecule: p45-sErbB3 (from UniProt P21860 20-329) (receptor)

Continued, molecule first:

Molecule: 2C4, a monoclonal antibody specific for the ErbB2 extracellular domain
- IC50 (ErbB2): 0.55 nM

B1: p85-sErbB3, P21860 20-538 (receptor)
chain: SEVGNSQAVCPGTLNGLSVTGDAENQYQTLYKLYERCEVVMGNLEIVLTGHNADLSFLQWIREVTGYVLVAMNEFSTLPLPNLRVVRGTQVYDGKFAIFVMLNYNTNSSHALRQLRLTQLTEILSGGVYIEKNDKLCHMDTIDWRDIVRDRDAEIVVKDNGRSCPPCHEVCKGRCWGPGSEDCQTLTKTICAPQCNGHCFGPNPNQCCHDECAGGCSGPQDTDCFACRHFNDSGACVPRCPQPLVYNKLTFQLEPNPHTKYQYGGVCVASCPHNFVVDQTSCVRACPPDKMEVDKNGLKMCEPCGGLCPKACEGTGSGSRFQTVDSSNIDGFVNCTKILGNLDFLITGLNGDPWHKIPALDPEKLNVFRTVREITGYLNIQSWPPHMHNFSVFSNLTTIGGRSLYNRGFSLLIMKNLNVTSLGFRSLKEISAGRIYISANRQLCYHHSLNWTKVLRGPTEERLDIKHNRPRRDCVAEGKVCDPLCSSGGCWGPGPGQCLSCRNYSRGGVCVTHCNFLNGYSKGSQSRMGGGGALQWNCSGGIQ
modifications: here or on the partner: Secreted glycoprotein (bound to Con A); glycans not carried by the letters.
- decrease of HRGα-stimulated ErbB3 activation in Ba/F3 (ErbB2+ErbB3) cells, 2 µg/ml HRGα, conditioned medium [3]: 30%
- inhibition of HRGα-stimulated ErbB3 activation (tyrosine phosphorylation, densitometry) in Ba/F3 (ErbB2+ErbB3) cells, 1 µg/ml HRGα, conditioned medium [3]: 80%

B2: p85-sErbB3 (receptor)
chain: SEVGNSQAVCPGTLNGLSVTGDAENQYQTLYKLYERCEVVMGNLEIVLTGHNADLSFLQWIREVTGYVLVAMNEFSTLPLPNLRVVRGTQVYDGKFAIFVMLNYNTNSSHALRQLRLTQLTEILSGGVYIEKNDKLCHMDTIDWRDIVRDRDAEIVVKDNGRSCPPCHEVCKGRCWGPGSEDCQTLTKTICAPQCNGHCFGPNPNQCCHDECAGGCSGPQDTDCFACRHFNDSGACVPRCPQPLVYNKLTFQLEPNPHTKYQYGGVCVASCPHNFVVDQTSCVRACPPDKMEVDKNGLKMCEPCGGLCPKACEGTGSGSRFQTVDSSNIDGFVNCTKILGNLDFLITGLNGDPWHKIPALDPEKLNVFRTVREITGYLNIQSWPPHMHNFSVFSNLTTIGGRSLYNRGFSLLIMKNLNVTSLGFRSLKEISAGRIYISANRQLCYHHSLNWTKVLRGPTEERLDIKHNRPRRDCVAEGKVCDPLCSSGGCWGPGPGQCLSCRNYSRGGVCVTHCNFLNGYSKGSQSRMGGGGALQWNCSGGIQ
modifications: Secreted glycoprotein (bound to Con A); glycans not carried by the letters.
- inhibition of HRGβ-stimulated MCF7 cell growth, 0.4 nM HRGβ, 40 nM p85-sErbB3 (100-fold molar excess), 5,000 cells/well [2]: 75%
- inhibition of HRGβ-stimulated MCF7 cell growth, 0.4 nM HRGβ, 40 nM p85-sErbB3 (100-fold molar excess), 8,000 cells/well [2]: 90%
- Kd (HRGβ177-244 [4]): 3 nM
- IC50 (HRGβ177-244 [5]): 0.45 nM
